Literature values, collected in publication PMC11899465.
Where two headings read alike, the source gives them in different places.

What was measured:
CD137 (Homo sapiens) [1] = target: CD137 (Homo sapiens) (UniProt Q07011)
CD137 (Homo sapiens) [2] = target: CD137 (Homo sapiens) (UniProt Q07011); remark: listed apart in the source

Chain of CD137 (Homo sapiens) (Q07011 24-255): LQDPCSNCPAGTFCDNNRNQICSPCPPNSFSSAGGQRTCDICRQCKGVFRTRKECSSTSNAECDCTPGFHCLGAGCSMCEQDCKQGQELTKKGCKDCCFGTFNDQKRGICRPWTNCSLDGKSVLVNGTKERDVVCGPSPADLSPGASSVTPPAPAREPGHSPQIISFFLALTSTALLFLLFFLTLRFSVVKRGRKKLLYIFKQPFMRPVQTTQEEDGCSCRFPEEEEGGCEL
Chain of CD137L (homotrimer) (P41273 whole entry): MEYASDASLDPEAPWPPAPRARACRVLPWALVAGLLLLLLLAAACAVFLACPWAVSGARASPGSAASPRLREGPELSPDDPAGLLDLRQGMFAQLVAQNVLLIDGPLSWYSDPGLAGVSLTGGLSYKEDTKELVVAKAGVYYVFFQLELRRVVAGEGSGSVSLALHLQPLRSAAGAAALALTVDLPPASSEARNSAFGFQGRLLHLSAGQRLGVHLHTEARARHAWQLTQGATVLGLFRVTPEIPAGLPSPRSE
Chain of CD137L (monomer) (P41273 whole entry): as above

Row | Substance | Kd (CD137 (Homo sapiens) [1]) [µM] | Kd (CD137 (Homo sapiens) [2]) [µM]
1 | CD137L (monomer) (from UniProt P41273) | 0.0552 | –
2 | CD137L (homotrimer) (from UniProt P41273) | – | 0.0012
